Reference: patent publication US20260124245A1 (UNIVERSITY OF NORTH CAROLINA AT CHAPEL HILL, published 2026)
Ends that are not written are not given here.

Target: T1, Base Leucine Zipper (B-LZ)
T1 construct: In FRET it carried an AF555 label; In the cell and EV assays it was conjugated to the surface through Sulfo-SMCC; also called SynZip2
Assay: titration ELISA on coated B-LZ, anti-FLAG-HRP detection
Protocol: Enzyme-linked immunosorbent assay (ELISA). Nunc MaxiSorp 96-well plates were coated with Base-Leucine Zipper (B-LZ) at 2.5 μg/mL and incubated overnight at 4° C. The plate was thoroughly washed with 0.1% TBS-Tween (TBST). The wells were washed with 0.1% PBST and then blocked with BSA blocking buffer for 1 h at room temperature before incubation with complementary leucine zipper (C-LZ) concentrations ranging from 1 μM to […] at room temperature for 2 hours before washing. Washes were followed by the addition of 100 μL of anti-FLAG horseradish peroxidase (HRP)-linked monoclonal antibody (1:10,000 mAb, #A8592, Sigma Aldrich, St. Louis, MO) for 1 h at room temperature with rocking. The wells were washed with 0.1% PBST followed by the addition of TMB-ELISA substrate. After a 10 min incubation, 2 M H₂SO₄ was added to stop the reaction. The absorbance was measured at 450 nm and 570 nm with a SpectraMax M5 plate reader (Molecular Devices, Sunnyvale, CA).
The proteins were then expressed for in vitro testing. Using titration ELISA, the binding affinity of each sequence was tested for its affinity to the base leucine zipper (B-LZ). […] This decision was based on its high binding affinity and high expression levels in E. coli. […]

fold improvement in B-LZ binding compared with C-LZ 10 nM: 5 fold
B1: NIS1 (high-affinity complementary leucine zipper, HiA C-LZ) (designed binder)
chain: NLVAQLENEVASLENENETLKNKNLQKKNLIAYLEQEIANLRKKIEG
modifications: also: purification and detection tags and conjugation cysteine, position not given here
notes: NIS1 is a mutant of C-LZ 10 nM; not shown: purification and detection tags and conjugation cysteine (Ni-NTA purified, anti-FLAG detected, thiol conjugated); letter
